Data on 2 molecules can be found in patent publication CN106478818A (JIANGSU NOVOMAB BIOPHARMACEUTICALS INC, dated 2017).

Numbering of substitutions follows the chain as printed.

The target of experiment [1] is T1, 重组TEM8蛋白 (recombinant TEM8 protein, 北京义翘神州生物技术有限公司) (UniProt Q9H6X2 33-321, limits assumed).
T1 construct: Bought recombinant protein coated on an ELISA plate; also called TEM8重组蛋白; 肿瘤内皮标记物8
T1 sequence (looked up): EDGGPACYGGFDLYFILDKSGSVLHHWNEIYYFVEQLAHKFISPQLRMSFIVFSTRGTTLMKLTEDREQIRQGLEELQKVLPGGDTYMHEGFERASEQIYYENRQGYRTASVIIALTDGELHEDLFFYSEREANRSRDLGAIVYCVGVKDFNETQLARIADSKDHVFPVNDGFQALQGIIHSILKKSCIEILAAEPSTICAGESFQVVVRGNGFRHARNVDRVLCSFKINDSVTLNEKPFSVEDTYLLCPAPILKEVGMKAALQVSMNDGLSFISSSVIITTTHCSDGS
Put plainly: ELISA, TEM8 protein coated, antibody in 1:4 serial dilution, anti-human IgG-HRP. For orientation: ELISA stands for enzyme-linked immunosorbent assay.

The target of experiment [2] is T2, TEM8 on TEM8稳定过表达细胞株 (CHO-K1 cells stably transfected with the full-length TEM8 gene) (human, UniProt Q9H6X2 33-564).
T2 construct: also called TEM8过表达细胞; 细胞膜TEM8
As to the kind of experiment: cell-based binding on plated TEM8-overexpressing cells, anti-human-Eu, time-resolved fluorescence.

B1: NMT802 (antibody, human IgG1, kappa, V domains shown)
VH: EVTLKESGPALVKPTQTLTLTCTFSGFSLSTSGMGVGWIRQPPGKALEWLAHIWWDDVKRYYPALKSRLTISKDTSKSQVVLTMTNMDPADTATYYCARIGYDWFPYWGQGTLVTVSS
VL: DIQMTQSPSFLSASVGDRVTITCKASQNVGIAVAWYQQKPGKAPKLLIYSASNRYTGVPSRFSGSGSGTDFTLTISYLQSEDFATYYCQQYRSYPLTFGGGTKVEIKR
notes: also called 单克隆抗体NMT802; NMT802抗体
For B1, the figures for the EC50 in experiment [1] and in experiment [2] were 0.0324 mg/L and 0.133 mg/L, respectively.

B2: NMT803 (antibody, V domains shown)
VH: B1 VH with R60Q, A90V
VL: DIQMTQSPSFLSASVGDRVTITCKASQNVGIAVAWYQQKPGKAPKLLIYSASNRYTGVPSRFSGSGSGTDFTLTISCLQSEDFATYYCQQYRFKPLTFGGGTKVEIK
notes: also called 单克隆抗体NMT803
Turning to B2, the EC50 was found to be 0.00544 mg/L in experiment [1] and 0.765 mg/L in experiment [2].

By EC50 is commonly meant the concentration needed to bring the measured effect to its halfway point.
